T1: Rhesus GIPR (rhesus, UniProt F7E1R9 22-466)
T1 sequence: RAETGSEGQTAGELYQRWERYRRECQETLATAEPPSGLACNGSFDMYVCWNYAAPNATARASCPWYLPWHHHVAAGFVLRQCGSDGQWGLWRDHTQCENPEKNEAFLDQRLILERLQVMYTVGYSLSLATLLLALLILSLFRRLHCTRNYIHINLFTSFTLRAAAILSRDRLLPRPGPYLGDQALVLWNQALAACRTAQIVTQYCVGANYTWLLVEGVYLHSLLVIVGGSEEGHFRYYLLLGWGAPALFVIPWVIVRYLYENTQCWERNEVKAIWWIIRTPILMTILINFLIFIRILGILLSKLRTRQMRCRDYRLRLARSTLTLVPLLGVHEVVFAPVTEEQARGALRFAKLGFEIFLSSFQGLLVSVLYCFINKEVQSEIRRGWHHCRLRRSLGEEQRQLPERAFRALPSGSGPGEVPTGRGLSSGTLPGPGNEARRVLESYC

B1: 5C2.007 (antibody, human IgG1, kappa, N297G, V domains shown)
VH: QVPLVQSGAEVKKPGASVKVSCKASGYTFTGYYIHWVRQAPGQGLEWMGWINPESGGTDYSQRFQGRFTMTRDTSISTAYMELNRLRSDDTAVYYCAREATIFGMVIVPFDYWGQGTLVTVSS
VL: not shown
B2: 13H12.004 (antibody, human IgG1, kappa, N297G, V domains shown)
VH: QVPLVQSGAEVKKPGASVKVSCKASGYTFTGYYIHWVRQAPGQGLEWMGWINPDSGGTDYSQRFQGRVTMTRDTSISTAYMELSRLRSDDTAVYYCAREATIFGMVIVPFDYWGQGTLVTVSS
VL: not shown
B3: 13H12.003 (antibody, human IgG1, kappa, N297G, V domains shown)
VH: QVPLVQSGAEVKKPGASVKVSCKASGYTFTGYYIHWVRQAPGQGLEWMGWINPESGGTDYSQRFQGRFTMTRDTSISTAYMELSRLRSDDTAVYYCAREATIFGMVIVPFDYWGQGTLVTVSS
VL: not shown
B4: 13H12.006 (antibody, human IgG1, kappa, N297G, V domains shown)
VH: QVPLVQSGAEVKKPGASVKVSCKASGYTFTGYYIHWVRQAPGQGLEWMGWINPESGGTDYSQRFQGRVTMTRDTSISTAYMELSRLRSDDTAVYYCAREATIFGMVIVPFDYWGQGTLVTVSS
VL: not shown
B5: 13H12.002 (antibody, human IgG1, kappa, N297G, V domains shown)
VH: QVPLVQSGAEVKKPGASVKVSCKASGYTFTGYYIHWVRQAPGQGLEWMGWINPESGGTDYSQRFQGRVTMTRDTSISTAYMELSRLRSDDTAVYYCAREATIFGMVIVPFDYWGQGTLVTVSS
VL: not shown
B6: 13H12 (antibody, human IgG1, kappa, N297G, V domains shown)
VH: QVPLVQSGAEVKKPGASVKVSCKASGYTFTGYYIHWVRQAPGQGLEWMGWINPDSGGTDYSQRFQGRFTMTRDTSISTAYMELSRLRSDDTAVYYCAREATIFGMVIVPFDYWGQGTLVTVSS
VL: not shown
B7: 4H9.004 (antibody, human IgG1, kappa, N297G, V domains shown)
VH: QVQLVESGGGVVQPGRSLRLSCAASGFTFSYFGMHWVRQAPGKGLEWVAVIWYDGSNKYYADSVKGRFTISRDNSKNTLYLQMNSLRAEDTAVYYCARDGTIFGVLLGDYWGQGTLVTVSS
VL: DIQMTQSPSSLSASVGDRVTITCRASQGIRNELGWYQQKPGKAPKRLIYGASSLQSGVPSRFSGSGSGTEFTLTISSLQPEDFVTYYCLQHNSYPFTFGPGTKVDVKR
B8: 12H11.002 (antibody, human IgG1, kappa, N297G, V domains shown)
VH: QVPLVQSGAEVKKPGASVKVSCKASGYTFTGYYIHWVRQAPGQGLEWMGWISPNQGETNYAQKFQDRVTMTRDTSISTAYMELSRLRSDDTAVYYCAREATIFGMLIVPFDYWGQGTLVTVSS
VL: DIVMTQSPDSLSVSLGERATINCKSSQSVLSSSNNKNYLAWYQQKPGQPPNLLIYWTSTRDSGVPDRFSGSGSGTDFTLTINSLQAEDVAVYYCQQYYRTPWTFGQGTKVEIKR
B9: 11C1.002 (antibody, human IgG1, kappa, N297G, V domains shown)
VH: QVPLVQSGAEVKKPGASVKVSCKASGYTFTGYYIHWVRQAPGQGLVWMGWISPNSGETSYAQKFQDRVTMTRDTSISTAYMELSRLRSDDTAVYFCAREATIFGMLIVPFDYWGQGTLVTVSS
VL: not shown
B10: 11C1.004 (antibody, human IgG1, kappa, N297G, V domains shown)
VH: QVPLVQSGAEVKKPGASVKVSCKASGYTFTGYYIHWVRQAPGQGLVWMGWISPNSGETSYAQKFQDRVTMTRDTSISTAYMELSRLRSDDTAVYFCAREATIFGMLIVPFDYWGQGTLVTVSS
VL: DIVMTQSPDSLSVSLGERATINCKSSQSVLSSSNNKNYLAWYQQKPGQPPNLLIYWTSTRDSGVPDRFSGSGSGTDFTLTINSLQAEDVAVYYCQQYYRTPWTFGQGTKVEIKR
B11: 11C1.005 (antibody, human IgG1, kappa, N297G, V domains shown)
VH: QVPLVQSGAEVKKPGASVKVSCKASGYTFTGYYIHWVRQAPGQGLVWMGWISPNSGETSYAQKFQDRVTMTRDTSISTAYMELSRLRSDDTAVYFCTREATIFGMLIVPFDYWGQGTLVTVSS
VL: not shown
B12: 11C1.006 (antibody, human IgG1, kappa, N297G, V domains shown)
VH: QVPLVQSGAEVKKPGASVKVSCKASGYTFTGYYIHWVRQAPGQGLVWMGWISPNSGDTSYAQKFQDRVTMTRDTSISTAYMELSRLRSDDTAVYFCTREATIFGMLIVPFDYWGQGTLVTVSS
VL: not shown
B13: 11C1.003 (antibody, human IgG1, kappa, N297G, V domains shown)
VH: QVPLVQSGAEVKKPGASVKVSCKASGYTFTGYYIHWVRQAPGQGLVWMGWISPNSGDTSYAQKFQDRVTMTRDTSISTAYMELSRLRSDDTAVYFCAREATIFGMLIVPFDYWGQGTLVTVSS
VL: not shown
B14: 11C1 (antibody, human IgG1, kappa, N297G, V domains shown)
VH: QVPLVQSGAEVKKPGASVKVSCKASGYTFTGYYIHWVRQAPGQGLVWMGWISPNSGDTSYAQKFQDRVTMTRDTSISTAYMELSRLRSDDTAVYFCTREATIFGMLIVPFDYWGQGTLVTVSS
VL: DIVMTQSPDSLSVSLGERATINCKSSQSVLSSSNNKNYLAWYQQKPGQPPNLLIYWTSTRDSGVPDRFSGSGSGTDFTLTINSLQAEDVAVYYCQQYYRTPWTFGQGTKVEIKR
B15: 17H11.004.001 (antibody, human IgG1, kappa, N297G, V domains shown)
VH: QVQLQESGPGLVKPSETLSLTCTVSGGSISSYYWSWIRQPAGKGLEWIGRIYTSGSTNYNPSLKSRVTMSIDTSKNQFSLKLNSVTAADTAVYYCARDVAVAGFDYWGQGTLVTVSS
VL: DIQMTQSPSSVSASVGDRVTITCRASQGLIIWLAWYQQKPGKAPKLLIYAASSLQSGVPSRFSGSGSGTDFTLTISSLQPEDFATYYCQQTNSFPPTFGQGTKVEIKR
notes: also called iPS:359621; iPS:359623
B16: 18E3 (antibody, human IgG1, kappa, N297G)
heavy: not shown
light: EIVLTQSPGTLSLSPGERATLSCRASQSISYSYLAWYQQKPGQAPRLLIYGASSRATGIPDRFSGSGSGTDFTLTISRQEPDDFAVYYCQQYGSSPLTFGGGTKVEIKRTVAAPSVFIFPPSDEQLKSGTASVVCLLNNFYPREAKVQWKVDNALQSGNSQESVTEQDSKDSTYSLSSTLTLSKADYEKHKVYACEVTHQGLSSPVTKSFNRGEC
B17: 18E3.004 (antibody, human IgG1, kappa, N297G)
heavy: not shown
light: EIVLTQSPGTLSLSPGERATLSCRASQSISYSYLAWYQQKPGQAPRLLIYGASSRATGIPDRFSGSGSGTDFTLTISRLEPDDFAVYYCQQYGSSPLTFGGGTKVEIKRTVAAPSVFIFPPSDEQLKSGTASVVCLLNNFYPREAKVQWKVDNALQSGNSQESVTEQDSKDSTYSLSSTLTLSKADYEKHKVYACEVTHQGLSSPVTKSFNRGEC
B18: 18E3.005 (antibody, human IgG1, kappa, N297G)
heavy: not shown
light: EIVLTQSPGTLSLSPGERATLSCRASQSISYSYLAWYQQKPGQAPRLLIYGASSRATGIPDRFSGSGSGTDFTLTISRLEPDDFAVYYCQQYGSSPLTFGGGTKVEIKRTVAAPSVFIFPPSDEQLKSGTASVVCLLNNFYPREAKVQWKVDNALQSGNSQESVTEQDSKDSTYSLSSTLTLSKADYEKHKVYACEVTHQGLSSPVTKSFNRGEC
B19: 18E3.006 (antibody, human IgG1, kappa, N297G)
heavy: not shown
light: EIVLTQSPGTLSLSPGERATLSCRASQSISYSYLAWYQQKPGQAPRLLIYGASSRATGIPDRFSGSGSGTDFTLTISRLEPDDFAVYYCQQYGSSPLTFGGGTKVEIKRTVAAPSVFIFPPSDEQLKSGTASVVCLLNNFYPREAKVQWKVDNALQSGNSQESVTEQDSKDSTYSLSSTLTLSKADYEKHKVYACEVTHQGLSSPVTKSFNRGEC
B20: 18E3.008 (antibody, human IgG1, kappa, N297G)
heavy: not shown
light: EIVLTQSPGTLSLSPGERATLSCRASQSISYSYLAWYQQKPGQAPRLLIYGASSRATGIPDRFSGSGSGTDFTLTISRQEPDDFAVYYCQQYGSSPLTFGGGTKVEIKRTVAAPSVFIFPPSDEQLKSGTASVVCLLNNFYPREAKVQWKVDNALQSGNSQESVTEQDSKDSTYSLSSTLTLSKADYEKHKVYACEVTHQGLSSPVTKSFNRGEC
B21: 18E3.007 (antibody, human IgG1, kappa, N297G)
heavy: not shown
light: EIVLTQSPGTLSLSPGERATLSCRASQSISYSYLAWYQQKPGQAPRLLIYGASSRATGIPDRFSGSGSGTDFTLTISRQEPDDFAVYYCQQYGSSPLTFGGGTKVEIKRTVAAPSVFIFPPSDEQLKSGTASVVCLLNNFYPREAKVQWKVDNALQSGNSQESVTEQDSKDSTYSLSSTLTLSKADYEKHKVYACEVTHQGLSSPVTKSFNRGEC
B22: 18E3.003 (antibody, human IgG1, kappa, N297G)
heavy: not shown
light: EIVLTQSPGTLSLSPGERATLSCRASQSISYSYLAWYQQKPGQAPRLLIYGASSRATGIPDRFSGSGSGTDFTLTISRQEPDDFAVYYCQQYGSSPLTFGGGTKVEIKRTVAAPSVFIFPPSDEQLKSGTASVVCLLNNFYPREAKVQWKVDNALQSGNSQESVTEQDSKDSTYSLSSTLTLSKADYEKHKVYACEVTHQGLSSPVTKSFNRGEC
B23: 18E3.002 (antibody, human IgG1, kappa, N297G)
heavy: not shown
light: EIVLTQSPGTLSLSPGERATLSCRASQSISYSYLAWYQQKPGQAPRLLIYGASSRATGIPDRFSGSGSGTDFTLTISRLEPDDFAVYYCQQYGSSPLTFGGGTKVEIKRTVAAPSVFIFPPSDEQLKSGTASVVCLLNNFYPREAKVQWKVDNALQSGNSQESVTEQDSKDSTYSLSSTLTLSKADYEKHKVYACEVTHQGLSSPVTKSFNRGEC

What follows are binders tested against T1, Rhesus GIPR (assay: cell-based or functional assay).

In order of rising “Rhesus GIPR CAMP Assay (Conc. mAb @ 60% Inhibition in nM)” value:
1. B17  0.06 nM
2. B18  0.1 nM
3. B19  0.12 nM
4. B22  0.12 nM
5. B23  0.16 nM
6. B15  0.22 nM
7. B21  0.24 nM
8. B16  0.25 nM
9. B10  0.33 nM
10. B20  0.37 nM
11. B9  0.39 nM
12. B11  0.42 nM
13. B7  0.43 nM
14. B8  0.45 nM
15. B13  0.48 nM
16. B12  0.51 nM
17. B2  0.56 nM
18. B14  0.65 nM
19. B1  0.66 nM
20. B6  0.67 nM
21. B3  0.83 nM
22. B4  0.92 nM
23. B5  0.95 nM

Source: patent publication US20250376529A1 (Amgen, published 2025)
